We go through three molecules from PMC8074105, “Bacillus subtilis PcrA Helicase Removes Trafficking Barriers” (Cells, 2021).

Data set [1] has as its target T1, PcrA (Bacillus subtilis, UniProt O34580 1-739).
T1 sequence: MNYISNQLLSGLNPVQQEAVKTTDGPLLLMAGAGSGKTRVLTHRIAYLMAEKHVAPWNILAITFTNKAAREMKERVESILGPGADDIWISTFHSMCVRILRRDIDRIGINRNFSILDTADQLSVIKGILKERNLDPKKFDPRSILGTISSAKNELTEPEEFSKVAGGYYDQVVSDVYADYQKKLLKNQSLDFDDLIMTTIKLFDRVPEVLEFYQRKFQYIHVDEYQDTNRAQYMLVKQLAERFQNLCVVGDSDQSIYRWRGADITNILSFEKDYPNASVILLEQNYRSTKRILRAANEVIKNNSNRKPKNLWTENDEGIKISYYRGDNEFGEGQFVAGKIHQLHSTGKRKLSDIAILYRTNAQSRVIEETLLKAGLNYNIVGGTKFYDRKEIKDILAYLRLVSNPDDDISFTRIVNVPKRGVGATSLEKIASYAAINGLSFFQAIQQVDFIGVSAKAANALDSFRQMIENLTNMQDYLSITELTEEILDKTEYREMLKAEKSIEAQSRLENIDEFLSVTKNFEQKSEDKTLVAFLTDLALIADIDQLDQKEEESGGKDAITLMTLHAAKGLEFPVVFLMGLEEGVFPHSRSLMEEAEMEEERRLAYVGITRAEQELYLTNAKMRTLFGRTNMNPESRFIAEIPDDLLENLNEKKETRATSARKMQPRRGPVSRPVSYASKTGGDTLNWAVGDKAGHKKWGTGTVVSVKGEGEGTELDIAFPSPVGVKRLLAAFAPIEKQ
Nature of the data set: EMSA; 2.5 mM ATPgS, 3 mM Mg2+; apparent; unstable complexes; 20 mM Tris-HCl pH 7.5, 50 mM NaCl, 3 mM MgCl2, 4 mM DTT, 0.05 mg/mL BSA, 5% glycerol, 2.5 mM ATPgS, 0.1 nM 32P-labelled nucleic acid, 15 min, 37 C. The settings on record: protein: recombinant; tags: His6 removed (TAGZyme); label: 32P. (In general: A gel shift assay detects complexes by their altered migration in electrophoresis.)

For data set [2], the target named is T1, PcrA. Nature of the data set: EMSA; 2.5 mM ATPgS, 3 mM Mg2+; four complexes; 20 mM Tris-HCl pH 7.5, 50 mM NaCl, 3 mM MgCl2, 4 mM DTT, 0.05 mg/mL BSA, 5% glycerol, 2.5 mM ATPgS, 0.1 nM 32P-labelled nucleic acid, 15 min, 37 C. The following applies: protein: recombinant; tags: His6 removed (TAGZyme); label: 32P.
Substrate in data set [3]: Nc1ncnc2c1ncn2[C@@H]1O[C@H](COP(=O)(O)OP(=O)(O)OP(=O)(O)O)[C@@H](O)[C@H]1O
Nature of the data set: NADH-coupled (pyruvate kinase / lactate dehydrogenase) spectrophotometric ATPase assay, Michaelis-Menten fit. The following applies: 15 nM PcrA, ATP 0.06 to 10 mM, ssDNA-dependent assay (circular pGEM3 Zf(+) ssDNA, 10 µM in nt, inferred from context), 10 mM Mg acetate, 80 mM NaCl, pH 7.5, 37 °C. The class given is biochemical, Bacillus subtilis.

Consider GCUCUGAUGCCGCAUAGUUAAGCCAGCCCCGACACCCG (ssRNA) [38-nt RNA (SM44R)], for which the Kd in data set [1] is approximately 35 nM. For GCTCTGATGCCGCATAGTTAAGCCAGCCCCGACACCCG (ssDNA) [38-nt ssDNA (SM44D)], the binding result in data set [2] is listed as “binds”.

B1: PcrA (Bacillus subtilis subsp. subtilis str. 168) (protein)
chain: T1 sequence
notes: full-length, His6-tagged from plasmid pCB1229 (pQE1) in E. coli M15 (pREP4), His-tag removed with TAGZyme; amounts as monomers
As usually defined, the Km is the concentration of substrate that gives half-maximal velocity. With B1, the Km in data set [3] came to 1500 ± 300 µM.
